The values below come from PMC2716658 (Nature structural & molecular biology, 2009).

The chains are these.
B1: WAVE1 (subunit of the recombinant human WRC) (natural protein)
chain: MPLVKRNIDPRHLCHTALPRGIKNELECVTNISLANIIRQLSSLSKYAEDIFGELFNEAHSFSFRVNSLQERVDRLSVSVTQLDPKEEELSLQDITMRKAFRSSTIQDQQLFDRKTLPIPLQETYDVCEQPPPLNILTPYRDDGKEGLKFYTNPSYFFDLWKEKMLQDTEDKRKEKRKQKQKNLDRPHEPEKVPRAPHDRRREWQKLAQGPELAEDDANLLHKHIEVANGPASHFETRPQTYVDHMDGSYSLSALPFSQMSELLTRAEERVLVRPHEPPPPPPMHGAGDAKPIPTCISSATGLIENRPQSPATGRTPVFVSPTPPPPPPPLPSALSTSSLRASMTSTPPPPVPPPPPPPATALQAPAVPPPPAPLQIAPGVLHPAPPPIAPPLVQPSPPVARAAPVCETVPVHPLPQGEVQGLPPPPPPPPLPPPGIRPSSPVTVTALAHPPSGLHPTPSTAPGPHVPLMPPSPPSQVIPASEPKRHPSTLPVISDARSVLLEAIRKGIQLRKVEEQREQEAKHERIENDVATILSRRIAVEYSDSEDDSEFDEVDWLE
B2: Nap1 (natural protein)
chain: MSRSVLQPSQQKLAEKLTILNDRGVGMLTRLYNIKKACGDPKAKPSYLIDKNLESAVKFIVRKFPAVETRNNNQQLAQLQKEKSEILKNLALYYFTFVDVMEFKDHVCELLNTIDVCQVFFDITVNFDLTKNYLDLIITYTTLMILLSRIEERKAIIGLYNYAHEMTHGASDREYPRLGQMIVDYENPLKKMMEEFVPHSKSLSDALISLQMVYPRRNLSADQWRNAQLLSLISAPSTMLNPAQSDTMPCEYLSLDAMEKWIIFGFILCHGILNTDATALNLWKLALQSSSCLSLFRDEVFHIHKAAEDLFVNIRGYNKRINDIRECKEAAVSHAGSMHRERRKFLRSALKELATVLSDQPGLLGPKALFVFMALSFARDEIIWLLRHADNMPKKSADDFIDKHIAELIFYMEELRAHVRKYGPVMQRYYVQYLSGFDAVVLNELVQNLSVCPEDESIIMSSFVNTMTSLSVKQVEDGEVFDFRGMRLDWFRLQAYTSVSKASLGLADHRELGKMMNTIIFHTKMVDSLVEMLVETSDLSIFCFYSRAFEKMFQQCLELPSQSRYSIAFPLLCTHFMSCTHELCPEERHHIGDRSLSLCNMFLDEMAKQARNLITDICTEQCTLSDQLLPKHCAKTISQAVNKKSKKQTGKKGEPEREKPGVESMRKNRLVVTNLDKLHTALSELCFSINYVPNMVVWEHTFTPREYLTSHLEIRFTKSIVGMTMYNQATQEIAKPSELLTSVRAYMTVLQSIENYVQIDITRVFNNVLLQQTQHLDSHGEPTITSLYTNWYLETLLRQVSNGHIAYFPAMKAFVNLPTENELTFNAEEYSDISEMRSLSELLGPYGMKFLSESLMWHISSQVAELKKLVVENVDVLTQMRTSFDKPDQMAALFKRLSSVDSVLKRMTIIGVILSFRSLAQEALRDVLSYHIPFLVSSIEDFKDHIPRETDMKVAMNVYELSSAAGLPCEIDPALVVALSSQKSENISPEEEYKIACLLMVFVAVSLPTLASNVMSQYSPAIEGHCNNIHCLAKAINQIAAALFTIHKGSIEDRLKEFLALASSSLLKIGQETDKTTTRNRESVYLLLDMIVQESPFLTMDLLESCFPYVLLRNAYHAVYKQSVTSSA
B3: Sra1 (natural protein)
chain: MAAQVTLEDALSNVDLLEELPLPDQQPCIEPPPSSLLYQPNFNTNFEDRNAFVTGIARYIEQATVHSSMNEMLEEGQEYAVMLYTWRSCSRAIPQVKCNEQPNRVEIYEKTVEVLEPEVTKLMNFMYFQRNAIERFCGEVRRLCHAERRKDFVSEAYLITLGKFINMFAVLDELKNMKCSVKNDHSAYKRAAQFLRKMADPQSIQESQNLSMFLANHNKITQSLQQQLEVISGYEELLADIVNLCVDYYENRMYLTPSEKHMLLKVMGFGLYLMDGSVSNIYKLDAKKRINLSKIDKYFKQLQVVPLFGDMQIELARYIKTSAHYEENKSRWTCTSSGSSPQYNICEQMIQIREDHMRFISELARYSNSEVVTGSGRQEAQKTDAEYRKLFDLALQGLQLLSQWSAHVMEVYSWKLVHPTDKYSNKDCPDSAEEYERATRYNYTSEEKFALVEVIAMIKGLQVLMGRMESVFNHAIRHTVYAALQDFSQVTLREPLRQAIKKKKNVIQSVLQAIRKTVCDWETGHEPFNDPALRGEKDPKSGFDIKVPRRAVGPSSTQLYMVRTMLESLIADKSGSKKTLRSSLEGPTILDIEKFHRESFFYTHLINFSETLQQCCDLSQLWFREFFLELTMGRRIQFPIEMSMPWILTDHILETKEASMMEYVLYSLDLYNDSAHYALTRFNKQFLYDEIEAEVNLCFDQFVYKLADQIFAYYKVMAGSLLLDKRLRSECKNQGATIHLPPSNRYETLLKQRHVQLLGRSIDLNRLITQRVSAAMYKSLELAIGRFESEDLTSIVELDGLLEINRMTHKLLSRYLTLDGFDAMFREANHNVSAPYGRITLHVFWELNYDFLPNYCYNGSTNRFVRTVLPFSQEFQRDKQPNAQPQYLHGSKALNLAYSSIYGSYRNFVGPPHFQVICRLLGYQGIAVVMEELLKVVKSLLQGTILQYVKTLMEVMPKICRLPRHEYGSPGILEFFHHQLKDIVEYAELKTVCFQNLREVGNAILFCLLIEQSLSLEEVCDLLHAAPFQNILPRVHVKEGERLDAKMKRLESKYAPLHLVPLIERLGTPQQIAIAREGDLLTKERLCCGLSMFEVILTRIRSFLDDPIWRGPLPSNGVMHVDECVEFHRLWSAMQFVYCIPVGTHEFTVEQCFGDGLHWAGCMIIVLLGQQRRFAVLDFCYHLLKVQKHDGKDEIIKNVPLKKMVERIRKFQILNDEIITILDKYLKSGDGEGTPVEHVRCFQPPIHQSLASS
B4: Abi2 (subunit of the recombinant human WRC) (natural protein)
chain: MAELQMLLEEEIPGGRRALFDSYTNLERVADYCENNYIQSADKQRALEETKAYTTQSLASVAYLINTLANNVLQMLDIQASQLRRMESSINHISQTVDIHKEKVARREIGILTTNKNTSRTHKIIAPANLERPVRYIRKPIDYTILDDIGHGVKWLLRFKVSTQNMKMGGLPRTTPPTQKPPSPPMSGKGTLGRHSPYRTLEPVRPPVVPNDYVPSPTRNMAPSQQSPVRTASVNQRNRTYSSSGSSGGSHPSSRSSSRENSGSGSVGVPIAVPTPSPPSVFPAPAGSAGTPPLPATSASAPAPLVPATVPSSTAPNAAAGGAPNLADGFTSPTPPVVSSTPPTGHPVQFYSMNRPASRHTPPTIGGSLPYRRPPSITSQTSLQNQMNGGPFYSQNPVSDTPPPPPPVEEPVFDESPPPPPPPEDYEEEEAAVVEYSDPYAEEDPPWAPRSYLEKVVAIYDYTKDKEDELSFQEGAIIYVIKKNDDGWYEGVMNGVTGLFPGNYVESIMHYSE
B5: HSPC300 (natural protein)
chain: MAGQEDPVQREIHQDWANREYIEIITSSIKKIADFLNSFDMSCRSRLATLNEKLTALERRIEYIEARVTKGETLT

The target of test [1] is B3. Put plainly: co-expression and purification of the complex.
For test [2], the target named is B1. Put plainly: AUC.

Consider B1, for which the binding result in test [1] is “binds”. The term stoichiometry N denotes the number of molecules, sites or subunits per partner or assembly. For the molecule B2, in test [2], the “stoichiometry N” value is 1. Still for that read-out and setting: the same measure for B3: 1; for B4: 1; for B5: 1.
